Results published in the nanobody polyreactivity screen of Harvey et al. (2022).

Assay: yeast display, Sf9 membrane polyspecificity reagent, FACS + sequencing; frameworks hold sequencing errors
Procedure, shortened: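 Galactose-induced (36–48 hours) yeast carrying a synthetic nanobody display library were exposed to 10% biotinylated, detergent-solubilized Sf9 membrane reagent at 4 °C for 1 hour. FACS followed streptavidin microbead enrichment, using low and high (top ~1%) gates for expression (anti-HA) and reagent binding (streptavidin). Colony PCR, MiSeq 2 × 250 sequencing and CDR-length filtering followed. Labels for polyreactivity reflect the gate of origin.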

Row | Sequence | polyreactivity (PSR sort gate)
1 | QVQLQESGAGLVKAGGSLRLSCAASGNISNHNDMGWYRQAPGKEREFVAGITAGGITNYADSVKRRFTISRDNAKNSVYLQMKSLKPEDTAVYYCAAYPDYDKSYGYWGQGTQATVSS | low polyreactivity
2 | QVQLVESGGGLVQAGGSLRLSCAASGIIFAGYAMGWYRQAPGKERELVADITSSGTSTYYADSVKGRFTISRDNAKNTVYLQMNSLKPEDTAVYYCAADDPRKNFTILDYLYDYWGQGTQVTVSS | low polyreactivity
3 | QVHLVESGGGLVQAGGSLRLSCAASGIIFYLYAMGRYRQAPGKERELVAGITSGGDTKYADSVKGRFTISRDNAKNTVYLQMNSLKPEDTAVYYCATDSGSVWQRWGYANYDYWGQGTQVTVSS | low polyreactivity
4 | QVQLVESGGGLVQAGGSLRLSCAASGSIFYQNARGWYRQAPGKERELVAAISISDGSTYYADSVNGRFTISRDNAKNTVYLQMNILKPEDTAVYYCNADSLYYDPYDYWGQGTQVTVSS | low polyreactivity
5 | QVQLVESGGGLVQAGGSLRLSCAASGITFFRYAMGWYRQAPGKERELVAAISSSGGSTYYADSVKGRFTISRDNAKNTVYLQMNSLKPEDTAVYYCAAAHGYRYYWGQGTQVTVSS | high polyreactivity
6 | QVQLVESGGGIVQAGGSLRLSCAASGSTFYVNTMGWYRQAPGKERDLVAAISYTGGNTYYADSVKGRFTISRDNAKNTVYLQMNSLKPEDTAVYYCAARILYRGTGYPYRMNYWGQGTQVTVSS | high polyreactivity
7 | QVQLVESGGGLVQAGGSLRLSCAASGYIFPEYVMGWYRQAPGKERELVAVITWDGTSTYADSVKGRFTISRDNAKNTVYLQMNSLKPEDTAVYYCAADTNYYVDTAGYGDGLDSWGQGTQVTVSS | low polyreactivity
8 | QVQLVESGGGLVQAGGSLRLSCAASGFTFWLYAMGCYRQAPGKEREFVAAISTSGGSTYADSVKGRFTISRDNAKNTVYLQMNSLKPEDTAVYYCNAGYLLYYDYHLFYWGQGTQVTVSS | low polyreactivity
9 | QFQLVESGGGLVQAGGRLRLSCAASGSTFLPYAMGWYRQAPGKESELVAAIRGRGGRTYYADSVKGRFTISRANAKNTVYLQMNSLKPEDSAVYYCAADVKGLSWTYDSWGQGTQVTVSS | high polyreactivity
10 | QVQLVESGGGLVQAGGSLRLSCAASGSIFKHNDMGWYRQAPGKERELVAAISRSGGSTYYADSVKGRFTISRDNAKNTVYLQMNSLKPEDTAVYYCAKDGVGAPSTYNYWGQGTQVTVSS | high polyreactivity
11 | QVQLVESGGGIVQAGGSLRLSCAASGSIFSFNAMGWYRQAPGKERELVAAISRGGSTYYADSVKGRFTISRDNAKNTVYLQMNSLKPEDTAVYYCAADIYGHSYSYYLGEYWGQGTQVTVSS | high polyreactivity
12 | QVQLVESGGCLVQAGGSLRLSCAASGRISVFYAMGWYRQAPGKERELVAAITRSGTTKYADSVKGRFTISRDNAKNTVYLQMNSLKPEDTAVYYCAVRRYRARFGYWGKGTQVTVSS | high polyreactivity
13 | QVQLVETGGGLVQAGGSLRLSCAASGRTFHYNVMGWYRQAPGKERELVAAITNTGGSTYYADSVKGRFTISRDNAKNTVYLQMNSLKPEDTAVYYCAAVETLPFDWYYWRYDYWGQGTQVTVSS | low polyreactivity
14 | QVQLQESGGGLMQAGGSQRLSCAASGSITYYSDMGCYRQAPGKELEFVAAIGYGTTTNYADSVKGRFTTSRDNAKYTVYLQMISMKPEDTAVYYCAAYQGKGYEFYYWGQGTQVTVRS | low polyreactivity
15 | QVQLVESGGGLVQAGGSLRLSCAASGGTFGSYAMGWYRQAPGKERELVAAIRSGDRTYYADSVKGRFTISRDNAKNTVYLQMNSLKPEDTAVYYCAKLRYPYLFWDDSEYWGQGTQVTVSS | low polyreactivity
16 | QVQLVESGGGLVQAGGSLRLSCAASGRIFGGYTMGWSRPAPGKERELVAAITGSGGRTYYADSVKGRFTISRDNAKNTVYLQMNSLQPEDTAVYYCNTVYRYLYSWGQGTQVTVSS | high polyreactivity
17 | QVQLVESGGGLVQAGGTLRLSCAASGFIFGINAMGWYRQAPGQERELVAAIATGDRTNYADSVTGRFTISRDNAKNTVYLQMNSLKPEHTAVYYCAAGVHWDRGDYWGQGTQVTVST | low polyreactivity
18 | QVQRVESGGGLVQAGGSLRLSCAASAFTFGANAMGWSRQAPGKERELVAAISVSDGITYYADSVKGRFTISRDNAKNTVYLLMNSLKPEDTAVYYCAAETYGYLFHSYDYWGQGTQVTVSS | low polyreactivity
19 | QVQLVESGGGLVQAGVSLRLSCAASGRTFAYNDMGCYRQAPGKERELVAAISWSDGTTYYADSVKGRFTSSRDNAKNTVYLQMNSLKPEDTAVYYCAAESYPSEVASYVSEYDYWGQGTQVTVSS | low polyreactivity
20 | QVHLVESGGGLVQAGGSLRLSCAASGRTIHSYAMGWYRQAPGKERELVAAINNGGGTYYADSVKGRFTISRDNAKNTVYLQMNSRKPEDTAVYYCAAATRKRIGSYYYWGQGTQVTVSS | high polyreactivity
21 | QVQLVESGGGLVQAGGSLRLSCAASGSTFRNNAMGWYRQAHGKERELVAAISRGGGSTYYADSVKGRFTISRDNAKNTVYLQMNSLKPEDTAVYYCARRPTGIYDYWGQGTQVTVSS | high polyreactivity
22 | QVQLVESGGGLVQAGGSLRLSCAASGFIFETNAMGWYRQAPGKERELVAAISSRGGSTYYADSVKGRFTISRDNAKNTVYLQMNSLKPEDTAVYYCAAKLVVSYGQEYDYWGQGTQVTVSS | low polyreactivity

Row | Sequence | polyreactivity (PSR sort gate)
23 | QVQLVESGGGLVPAGGSLRLSCAASGRTFFKNAMGWYRQAPGKERELVARISWNGGDSTYYADSVKGRFTISRDNAKNTVYLQMNSLKPEDTAVYSCAADTSYRPGGSRHGYGYWGQGTQVTVSS | low polyreactivity
24 | QVQLVESGGGLVQAGGSLRLSCAASGSIFESYAMGWYRQAPGKERELVASISGGGSTYYADSVKGRFTISRDNAKNTVYLQMNSLKPEDTAGYYCATVYVRYRQSRLIRYGYWGQGTQVTVSS | high polyreactivity
25 | QVQLVESGGGLVQAGGSLRLSCAAYGRIFGVYAMGWYRPAPGKERELVAAIERRGGTTYYADSVKGRITISRDMAKNTVYLQLNSLKPEDTAVYYCATGSIAAGHYAYNYWGQGTQVTVSS | high polyreactivity
26 | QVQLVESGGGLVQAGGSLRLSCAASGRTFRYNAMGWYRQAPGKERELVAAINWNGGSTYYADSVKGRFTISRDNAKNTGYLQMHSLKPEDTAVYYCNADFYHRYDWGQGTQVTGSS | high polyreactivity
27 | QVQLQECGGGLVQAGGSLRLSCAASVNIFDADIMGWYRQAPGKERELVASVTDGGSTNYADSVKGRFTISRDNAKNTVYLQMNSLKPEDTAVYYCAAIVYPDILTYFEYDYDYFYWGQGTQVTVGS | low polyreactivity
28 | QVQLVESGGGLVQAGGSLRLSCAASGRIFSPYAMGWYRQATGKERELVAAIDWDGGGTYYADSVKGRFTISRDNAKNTVYLQMNSLKPEDTAVYYCAAETDLANGTSPSDYWGQGTQVTVSS | low polyreactivity
29 | QVQLVESGGGLVQAGGSLRLSCAASGIIFAYNTMGWYRQAPGKARELVAAITYRGGRTYYADSVKGRFRISRDNAKNTFYLQMNSLKPEDTAVYYCAAGRGVYSYGYNYWGHGTQVTVSS | high polyreactivity
30 | QVQLVESGGGLVQAGGSLRLSCAASGSIFKFYTMGWYIQAPGKERELVATITSGGRTNYADSVKGRFTISPDNAKNTVYLQMNTLKPEDTAVYYCAATWLRVKYRFKGYDYWGQGTQVTVSS | high polyreactivity
31 | QVQLVESGGGLVQAGGSLRLSCAASGSILYYYAMGWYRQAPGKERELVAAITRSGGSTYYADSVKGRITISRDNAKNTVYLQMNSLKPEDTAVYYCAKDAHAYRDLDYWGQGTQVTVSS | low polyreactivity
32 | QVQLVESGGGLVQAGGRLRLSCAASGSTSVYYARGWYRQAPGKERELVAGITSGGNTNYADSVKGRFTISRDNAKNTVYFQMISLNPEDTSVYYCNAVYIVTVGWIRLGSYYYWGQGTQVTVSS | low polyreactivity
33 | QVHLVESGGGLVQAGGSLRLSCAASGLIFLAYAMGWYRQAPGKERELVAAISTSGSTYYADSVKGRFTISRDNAKNTVYLQMNSLKPEDTAVYYCAAYDRWSVTYYYWGQGTQVTVSS | high polyreactivity
34 | QVQLVESGGGLVQAGGSLRLSCAASGFIVDTYAMGWYRQAPGKERELVAVISSSGGRTYYADSVKGRFTISRDNAKNTVYFQMNSLKPEDTAVYYCAARWYSGYGRFDYWGQGTQVTVSS | high polyreactivity
35 | QVQIVESGGGLVQAGGSLRISCAASGRTIHLYDMGWYRQAPGKERELVAAITWSSGRTYYADSVKGRVTISRDNAKNTVYVQMNILKPEDTEVYYCAADVWGGLLPGYDYWGQGTQVTVSS | high polyreactivity
36 | QVQLVESGGGLVQAGGSLRLTCAASGSTFYIYAMGWDRQAPGKEAEFVAAIDFSGSSTYADSVKGRFTISRDNAKNTVYLQMNSLKPEDTAVYYCAAYQIYQYDGPYDYWGEGTQVTVSS | low polyreactivity
37 | QVQLVESGGGLVQAGGSLRLSCAASGSIFPLYDMGWYRLAPGKERELVAGITGSGGSTYYADSVKGRFTISRDNAKNTVYLQMNSLKPEDTAVYYCAADYSLYGWWFRNDYWGQGTQVTVSS | low polyreactivity
38 | QVQLVESGGGLVQAGGSLRLSCAASGNTFRSYVMGWYRQAPGKERELVADISSGDGTNYADSVKGRFTISRDNAKNTVYLQMNSLKPEDTAVYYCAAEWSEESDYWGQGTQVTVSS | low polyreactivity
39 | QFQLVESGGGLVQAGGSLRLICAASGFIFWYNAMGWYRQSPGKEREFVAAISSGGSTTYADSVKGRFTISRDNALITVYLQMNSLKPEDTAVYYCAAGSYDYDYWGQGTQVTVSS | low polyreactivity
40 | QVQLVESGGGLVQAGGSLRLSCAASGRIFRKYAMGWYRQAPGKERELVAVINDRGGSTYYADSVKGRFTISRDNAKNTVYLQMNSLKPEDTAVYYCNATGPKKDTARYDYWGQGTQVTVSS | low polyreactivity
41 | QVQLVESGGGLVQAGGSLRLSCAASGRTFVQYAMGWYRQAPGKERELVARITSVRSTNYADSVKGRFTISRDNAKNTVYLQLNSLKPEDTAVFYCAAPTVVYRSYYYWGQGTQVTVSS | high polyreactivity
42 | QVQLVESGGGLVQAGGSLRLSCAASGSIFYRNAMGWYRQAPGKERELVAAISWSGASTSYADSVKGRFTISPDNAKNTVYLQMNSLIPDATAVYYCNAGKYAYLWLKLFAPKLDYWGQGTQVTVSS | low polyreactivity
43 | QVQLVESGGGLVQAGGSLRLSCAASGSTFTIYAMGWYRQAPGKERELVAAITWNGGSTYYADSVKGRFTISRDNAKKTVYLQMNRLKPEDTAVYYCAAKFRYQYVRVAREYYYWGQGTQVTVSS | high polyreactivity
